In one assay the target is N1P1. Put plainly: fluorescence anisotropy displacement; Fig 9B. In general terms: Polarisation of emitted light reports the rotation of a fluorescent probe.
The target in assay [1] is T1, CAL PDZ domain (CALP), wild type (UniProt Q9HD26 278-362). The assay can be described thus: fluorescence anisotropy displacement; Fig 9A.
Another assay addresses CALP-H301A mutant (UniProt Q9HD26 278-362). Put plainly: fluorescence anisotropy displacement; Fig 9B.
The target in assay [2] is T1, CAL PDZ domain (CALP), wild type. Put plainly: fluorescence anisotropy displacement; Fig 9B.
Assay [3] has the same target. Put plainly: fluorescence anisotropy displacement; Fig 9A; upper bound, nonspecific Rh inhibition.

Where no end group is shown, it is not given here.

Usually Ki stands for the dissociation constant of the complex between target and ligand, obtained from inhibition or displacement.

Regarding Ac-EWPTSII-OH, the Ki with N1P1 was greater than 500000 nM.
Consider Ac-QLDVTR [QLDVTR peptide (scrambled control sequence)], for which the Ki in assay [1] was greater than 500 µM.
Take Ac-E(dirhodium)VQSTRL-OH (also: dirhodium metal complex at Glu side-chain carboxylate) [E^RhVQSTRL metallopeptide]: the values for the inhibitory constant (Ki) (in the assay with CALP-H301A mutant; in assay [2]) were 11.3 µM and 430 nM, respectively.
For the molecule Ac-QLD(dirhodium)VTR (also: dirhodium metal complex at Asp side-chain carboxylate) [QLD^RhVTR metallopeptide], the Ki in assay [3] was 10 µM.
Take Ac-EVQSTRL-OH: the Ki with N1P1 is 710 nM.
Consider Ac-VQDTRL-OH, for which, in the assay with N1P1, the affinity corresponds to a Ki of 700 nM.
Regarding Ac-E(dirhodium)WPTSII-OH (also: dirhodium metal complex at Glu side chain) [E^RhWPTSII metallopeptide], the Ki in assay [2] amounted to 1300 nM.
With Ac-E(dirhodium)WPTSII-OH (also: dirhodium metal complex at Glu side chain) [E(Rh)WPTSII], in the assay with N1P1, the Ki was greater than 50000 nM.
In turn, Ac-VQD(dirhodium)TRL-OH (also: dirhodium metal complex at Asp side-chain carboxylate) [VQD^RhTRL metallopeptide] yielded an inhibitory constant (Ki) in assay [2] of roughly 49000 nM.
In turn, Ac-E(dirhodium)VQSTRL-OH (also: dirhodium metal complex at Glu side-chain carboxylate) [E(Rh)VQSTRL] showed a Ki with N1P1 of 32 nM.
